In test [1] the target is death receptor (DR) on the plasma membrane of MDA-MB-231 cells. Briefly: cell-based or functional assay.
Test [2] has the same target. Briefly: fluorescence of cell-associated r-TRAIL on MDA-MB-231 cells, 4 C (membrane only) against 37 C (membrane plus internalised), r-TRAIL-Gelipo 0.2 ug/mL after HAase treatment.

Consider “His-ILZ-TRAIL (residues 114-281) (from UniProt P50591 114-281) (ligand)”, for which, in test [1], the apoptosis ratio, Annexin V-FITC/PI flow cytometry, MDA-MB-231 cells, 12 h, free TRAIL 2 ng/mL amounted to 36.5%; the apoptosis ratio, Annexin V-FITC/PI flow cytometry, MDA-MB-231 cells, 12 h, free TRAIL 20 ng/mL came out at 51.7%; the viability, Annexin V-FITC/PI flow cytometry, MDA-MB-231 cells, 12 h, free TRAIL 20 ng/mL was determined as 32.3%.

For the substance “rhodamine-labeled TRAIL (His-ILZ-TRAIL, residues 114-281, labelled with rhodamine NHS ester) (from UniProt P50591 114-281) (ligand)”, the percent of r-TRAIL bound onto the membrane in test [2] was determined as 80%.
